Earlier results on 1 substance are cited in patent publication US6552168B1, “Gamma-ketoacid tetrapeptides as inhibitors of caspase-3” (Merck Frosst Canada & Co., priority 1998, dated 2003).

Bounds are passed on as bounds.

The term Ki denotes a dissociation constant, usually derived from enzyme kinetics or from competition with a known ligand.

The target of one series is T1, caspase-1 (Homo sapiens, UniProt P29466).
T1 sequence (P29466 120-297 limits assumed): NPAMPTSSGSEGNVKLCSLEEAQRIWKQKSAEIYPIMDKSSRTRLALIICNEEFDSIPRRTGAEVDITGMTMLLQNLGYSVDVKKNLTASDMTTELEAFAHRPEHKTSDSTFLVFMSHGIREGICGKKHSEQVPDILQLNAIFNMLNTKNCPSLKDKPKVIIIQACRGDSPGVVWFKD
T1 sequence (P29466 317-404 limits assumed): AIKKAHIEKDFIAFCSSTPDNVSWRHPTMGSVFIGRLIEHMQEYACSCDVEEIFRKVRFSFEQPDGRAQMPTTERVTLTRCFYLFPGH

The next series has as its target T2, caspase-3 (Homo sapiens, UniProt P42574).
T2 sequence (P42574 29-175 limits assumed): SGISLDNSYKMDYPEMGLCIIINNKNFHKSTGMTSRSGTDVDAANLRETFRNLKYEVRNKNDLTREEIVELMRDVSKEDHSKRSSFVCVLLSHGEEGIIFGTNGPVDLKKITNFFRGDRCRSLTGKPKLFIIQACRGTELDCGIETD
T2 sequence (P42574 176-277 limits assumed): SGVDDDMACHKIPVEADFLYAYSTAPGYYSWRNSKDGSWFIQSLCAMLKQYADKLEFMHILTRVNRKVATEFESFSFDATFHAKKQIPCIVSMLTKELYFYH

For the substance Ac-YVAD-CHO, the Ki with caspase-1 was < 0.001 µM; with caspase-3, 12 µM. The “kon caspase-1” value in the series with caspase-1 (slow-binding time-dependent inhibition) is 380000 M⁻¹ s⁻¹.
